From patent US20180208663A1 (AGENCY FOR SCIENCE TECHNOLOGY AND RESEARCH, published 2018) come the findings set out here.

In general, EC50 (read off the curve) refers to the concentration at which the effect is half-maximal.

One assay has as its target T1, recombinant human γc (human, UniProt P31785 23-262, limits assumed).
T1 construct: also called common γ chain; IL-2Rγ
T1 sequence (looked up): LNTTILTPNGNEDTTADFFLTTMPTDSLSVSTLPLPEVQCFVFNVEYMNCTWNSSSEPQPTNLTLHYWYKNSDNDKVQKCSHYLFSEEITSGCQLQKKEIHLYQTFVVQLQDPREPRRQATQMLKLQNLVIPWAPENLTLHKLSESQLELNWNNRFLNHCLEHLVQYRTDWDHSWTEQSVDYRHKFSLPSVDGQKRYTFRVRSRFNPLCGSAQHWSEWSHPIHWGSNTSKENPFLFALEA
Kind of assay: ELISA, scFv titrated (nM) on γc (IL-2Rγc). For orientation: An ELISA detects its analyte on a solid surface through an enzyme-linked reagent.

The target of a further assay is T2, recombinant human IL-2Rβ (human, UniProt P14784 27-240).
T2 construct: also called CD122; interleukin 2 receptor β
T2 sequence (looked up): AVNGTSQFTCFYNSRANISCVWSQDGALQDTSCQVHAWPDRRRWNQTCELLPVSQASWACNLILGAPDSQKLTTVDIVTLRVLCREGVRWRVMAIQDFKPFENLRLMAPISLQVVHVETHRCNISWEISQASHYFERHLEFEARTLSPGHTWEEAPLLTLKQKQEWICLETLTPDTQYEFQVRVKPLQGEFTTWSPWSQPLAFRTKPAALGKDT
Kind of assay: ELISA, scFv titrated (nM) on IL-2Rβ.

B1: P1A3_FW2 single chain antibody (scFv)
scFv: EVQLVESGGGLVQPGGSLRLSCAASGGSFSGYYWSWVRQAPGKGLEWVSEINHSGSTNYNPSLKSRFTISRDNSKNTLYLQMNSLRAEDTAVYYCARSPGGYSGGYFQHWGQGTLVTVSSGGGGSGGGGSGGGGSDIQMTQSPSSLSASVGDRVTITCRSSQSLLHSNGYNYLDWYQQKPGKAPKLLIYLGSNRDSGVPSRFSGSGSGTDFTLTISSLQPEDFATYYCMQGTHWPWTFGQGTKVEIK
For the molecule B1, in the assay with recombinant human γc, the “EC50 (read off the curve)” value was approximately 60 nM.

B2: P2C4_FW2 single chain antibody (scFv)
scFv: EVQLVQSGAEVKKPGASVKVSCKASGYTFTNYYMHWVRQAPGQGLEWMGAIMPSRGGTSYPQKFQGRVTITADKSTSTAYMELSSLRSEDTAVYYCARGEYYYDSSGYYYWGQGTLVTVSSGGGGSGGGGSGGGGSQSVLTQPPSVSGAPGQRVTISCTGTSSDIGHYDFVSWYQQLPGTAPKLLIYDINNRPSGVPDRFSGSKSGTSASLAITGLQAEDEADYYCSAYTSSDTLVFGGGTKLTVL
As to B2, the “EC50 (read off the curve)” value with recombinant human IL-2Rβ was approximately 1 nM.
